# From IntAct's records for PubMed 11734542
# B1: Protein phosphatase EYA1 (Mus musculus), P97767 (parent)
# chain: MEMQDLTSPHSRLSGSSESPSGPKLDSSHINSTSMTPNGTEVKTEPMSSSEIASTAADGSLDSFSGSALGSSSFSPRPAHPFSPPQIYPSKSYPHILPTPSSQTMAAYGQTQFTTGMQQATAYATYPQPGQPYGISSYGALWAGIKTESGLSQSQSPGQTGFLSYGTSFGTPQPGQAPYSYQMQGSSFTTSSGLYSGNNSLTNSSGFNSSQQDYPSYPGFGQGQYAQYYNSSPYPAHYMTSSNTSPTTPSTNATYQLQEPPSGVTSQAVTDPTAEYSTIHSPSTPIKETDSERLRRGSDGKSRGRGRRNNNPSPPPDSDLERVFIWDLDETIIVFHSLLTGSYANRYGRDPPTSVSLGLRMEEMIFNLADTHLFFNDLEECDQVHIDDVSSDDNGQDLSTYNFGTDGFPAAATSANLCLATGVRGGVDWMRKLAFRYRRVKEIYNTYKNNVGGLLGPAKREAWLQLRAEIEALTDSWLTLALKALSLIHSRTNCVNILVTTTQLIPALAKVLLYGLGIVFPIENIYSATKIGKESCFERIIQRFGRKVVYVVIGDGVEEEQGAKKHAMPFWRVSSHSDLMALHHALELEYL
# partner: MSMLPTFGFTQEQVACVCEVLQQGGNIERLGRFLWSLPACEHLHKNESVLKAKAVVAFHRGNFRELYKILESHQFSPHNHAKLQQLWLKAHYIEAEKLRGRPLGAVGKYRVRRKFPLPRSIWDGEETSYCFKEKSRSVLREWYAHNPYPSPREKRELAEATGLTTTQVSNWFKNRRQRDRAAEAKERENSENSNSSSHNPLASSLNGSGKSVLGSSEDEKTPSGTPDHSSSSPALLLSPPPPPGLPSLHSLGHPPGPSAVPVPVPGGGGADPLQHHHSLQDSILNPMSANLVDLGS
# B2: Protein phosphatase EYA1 (Mus musculus), P97767 (parent)
# chain: B1 chain
# partner: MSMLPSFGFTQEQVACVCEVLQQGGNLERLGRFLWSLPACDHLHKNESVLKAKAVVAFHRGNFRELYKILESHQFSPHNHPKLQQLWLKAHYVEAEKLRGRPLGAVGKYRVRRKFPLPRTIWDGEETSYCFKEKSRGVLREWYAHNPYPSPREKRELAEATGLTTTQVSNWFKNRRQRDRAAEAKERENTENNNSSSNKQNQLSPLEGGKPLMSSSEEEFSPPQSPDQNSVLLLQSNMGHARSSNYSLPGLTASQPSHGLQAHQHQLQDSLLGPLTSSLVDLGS
# Variants of: B1
# Details: with six2_mouse Six2, Q62232
row,Variant,effect of a mutation on the interaction
1,L504R,decreasing interaction
2,E330K,decreasing interaction

# Other lines, results leading:
row,effect of a mutation on the interaction,Variant
1,decreasing interaction,S486P
2,decreasing interaction,G425S

# Variants of: B2
# Details: with six1_mouse Six1, Q62231
row,Variant,effect of a mutation on the interaction
1,L504R,disrupting interaction
2,S486P,disrupting interaction
3,E330K,disrupting interaction

# Variants of: B2
# Details: with six1_mouse Six1, Q62231
# Remark: another data set of the same source
row,Variant,effect of a mutation on the interaction
1,L504R,decreasing interaction
2,S486P,decreasing interaction
3,E330K,decreasing interaction
